From patent US20260209325A1 (SCHOLAR ROCK, published 2026) come the findings set out here.

Positions count from the first letter of the chain named.

B1: Ab123 (antibody, human IgG4 S228P, kappa, V domains shown)
VH: EVQLVESGGGLVQPGGSLRLSCAASGFTFSKYDMSWVRQAPGKGLELVASISSSGGTRYYPDSVKGRFTISRDNAKNSLYLQMNSLRAEDTAVYYCAKDLWVASPGYGMDVWGQGTTVTVSS
VL: DIVMTQSPLSLPVTPGEPASISCRSSQSLLHSSGHNYLHWYLQKPGQSPQLLIYLGSIRAPGVPDRFSGSGSGTDFTLKISRVEAEDVGVYYCMQALLNPPTFGGGTKVEIKR
B2: Ab128 (antibody, human IgG4 S228P, kappa, V domains shown)
VH: EVQLVESGGGLVQPGGSLRLSCTASGFTLSSYSMDWVRQAPGKGLEWVSYITGSGDTTYYADSVKGRFTISRDNAKNTLYLQMNSLRAEDTAVYYCARGFGWISGWAEDYFDYWGQGTLVTVSS
VL: DIQMTQSPSSLSASVGDRVTITCQASQSVYSYLNWYQQKPGKAPKLLIYGASRLEGGVPSRFSGSGSGTDFTFTISSLQPEDIATYYCQQHSTDQRTFGGGTKVEIKR
B3: Ab115 (antibody, human IgG4 S228P, kappa, V domains shown)
VH: QVQLVQSGAEVKKPGASVKVSCKVSGYAFTNYNIHWVRQAPGKGLEWMGGINPRTGGTIYAQKFQGRVTMTEDTSTDTAYMELSSLKSEDTAVYYCAKDIYTGVAVAGSGMDYWGQGTLVTVSS
VL: DIQMTQSPSSVSASVGDRVTITCRASQGISTHLAWYQQKPGKAPKLLIYGASNLESGVPSRFSGSGSGTDFTLTISSLQPEDFANYYCQQANSFPWTFGGGTKVEIKR
B4: Ab114 (antibody, human IgG4 S228P, kappa, V domains shown)
VH: QVQLVQSGAEVKKPGASVKVSCKVSGGTFRSYTIHWVRQAPGKGLEWMGGMNPSSGHTIYAQKFQGRVTMTEDTSTDTAYMELSSLKSEDTAVYYCARGLDYGEGYYYYGMDVWGQGTTVTVSS
VL: DIQMTQSPSSVSASVGDRVTITCRASQGISESLAWYQQKPGKAPKLLIYSASSLESGVPSRFSGSGSGTDFTLTISSLQPEDFANYYCQQGYSSPPYTFGGGTKVEIKR
B5: Ab112 (antibody, human IgG4 S228P, kappa, V domains shown)
VH: QVQLVQSGAEVKKPGASVKVSCKVSGGTFGIYAIHWVRQAPGKGLEWMGGTIPVFGTAIYAQKFQGRVTMTEDTSTDTAYMELSSLKSEDTAVYYCASLTGIAAAGTHPARGGMDVWGQGTTVTVSS
VL: DIQMTQSPSSVSASVGDRVTITCRASPSISSYLAWYQQKPGKAPKLLIYAASRLQSGVPSRFSGSGSGTDFTLTISSLQPEDFANYYCQEYLSFPLTFGGGTKVEIKR
B6: Ab129 (antibody, human IgG4 S228P, kappa, V domains shown)
VH: QVQLVQSGAEVKKPGASVKVSCKVSGFNYPRSAIHWVRQAPGKGLEWMGGINPSGEATIYAQKFQGRVTMTEDTSTDTAYMELSSLKSEDTAVYYCARDSSPQWLVTAGVYFYGMDVWGQGTTVTVSS
VL: B5 VL with P27Q, S31N, Y32W, A50H, R53T, E90Q, L92S, F94T, L96W
B7: Ab141 (antibody, human IgG4 S228P, kappa, V domains shown)
VH: EVQLVESGGGLVQPGGSLRLSCAASGFTFSSYGMSWVRQAPGKGLELVASFTGSGGAYYPDSVKGRFTISRDNAKNSLYLQMNSLRAEDTAVYYCARDLLIRFLEWSHYYGMDVWGQGTTVTVSS
VL: DIVMTQSPLSLPVTPGEPASISCRSSQSLLHSSGHNFLHWYLQKPGQSPQLLIYEVSNRVSGVPDRFSGSGSGTDFTLKISRVEAEDVGVYYCMQQTQYPGTFGGGTKVEIKR
B8: Ab108 (antibody, human IgG4 S228P, kappa, V domains shown)
VH: EVQLVESGGGLVQPGGSLRLSCAASGSAFSSYGMSWVRQAPGKGLELVASINSNGGSTYYPDSVKGRFTISRDNAKNSLYLQMNSLRAEDTAVYYCARDLLVGFLQWSHYYGMDVWGQGTTVTVSS
VL: B7 VL with G101P
B9: Ab102 Fab (Fab, V domains shown)
VH: B8 VH with S27F, A28T, S30T, N52T, S53G, N54S, S57E, G103R, Q106E
VL: DIVMTQSPLSLPVTPGEPASISCRSSQSLLHSSGHNFLHWYLQKPGQSPQLLIYETSNRAPGIPDRFSGSGSGTDFTLKISRVEAEDVGVYYCMQATQFPRPFGGGTKVEIK
B10: Ab130 Fab (Fab, V domains shown)
VH: B8 VH with S27F, A28T, S30T, N52T, S53G, N54S, S57E, G103R, Q106E
VL: B9 VL with M94Q
notes: Fab of Ab130
B11: Ab105 Fab (Fab, V domains shown)
VH: B7 VH with F27S, T28A, F51I, T52G, S54T, G56A, A57T, I101V, S107G
VL: DIVMTQSPLSLPVTPGEPASISCRSSQSLLHSSGYNFLHWYLQKPGQSPQLLIYAASSRAPGIPDRFSGSGSGTDFTLKISRVEAEDVGVYYCMHGGQGPTFGGGTKVEIK
notes: Fab of Ab105

In general, Kd refers to the constant that tells how readily two partners part at equilibrium. Higher therefore signals a looser complex. As a reminder, the koff is the first-order rate constant of dissociation. A higher koff goes with fast dissociation. In general, kon refers to the rate constant with which the complex forms. High values mean faster complex formation, low ones slower complex formation.

Chain of human GDF-11 (O95390 299-407 limits assumed): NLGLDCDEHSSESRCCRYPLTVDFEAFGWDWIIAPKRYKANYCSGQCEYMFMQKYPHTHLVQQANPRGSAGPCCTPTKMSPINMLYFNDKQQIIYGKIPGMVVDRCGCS
Chain of mouse GDF-11 (Q9Z1W4 297-405 limits assumed): as the sequence (O95390 299-407 limits assumed) above

One experiment concerns the target T1, recombinant human latent myostatin (human, UniProt O14793 24-375, biotinylated (in the Octet pH assay only)). As to the kind of experiment: cell-based or functional assay.
On to B1, for which the “IC50 (nM) Latent + mTLL2” value came to 0.139 nM.

On to B2, for which the “IC50 (nM) Latent + mTLL2” value was determined as 1.03 nM.

For B3, the “IC50 (nM) Latent + mTLL2” value was determined as 2.94 nM.

As for B4, the “IC50 (nM) Latent + mTLL2” value turned out to be 3.3 nM.

For B5, the “IC50 (nM) Latent + mTLL2” value was found to be 9.22 nM.

For B6, the “IC50 (nM) Latent + mTLL2” value turned out to be 3.89 nM.

Take B7: the “IC50 (nM) Latent + mTLL2” value stood at 0.139 nM.

Take B8: the “IC50 (nM) Latent + mTLL2” value was 0.237 nM.

Another experiment concerns the target T2, human pro-myostatin (human, UniProt O14793 24-375, biotinylated (in the SPR assay)). Nature of the experiment: cell-based or functional assay.
Turning to B1, the “IC50 (nM) Pro + Furin” value was 0.184 nM.

With B2, the “IC50 (nM) Pro + Furin” value worked out at 0.774 nM.

As to B3, the “IC50 (nM) Pro + Furin” value was 6.01 nM.

Take B4: the “IC50 (nM) Pro + Furin” value is 2.8 nM.

B5: the “IC50 (nM) Pro + Furin” value was 1.08 nM.

With B6, the “IC50 (nM) Pro + Furin” value was 4.31 nM.

As for B8, the “IC50 (nM) Pro + Furin” value is 0.27 nM.

A further experiment addresses human GDF-11 (human, UniProt O95390 299-407, limits assumed). Nature of the experiment: plate binding assay, OD 450 nm, one antibody concentration that is not given, on Hu-GDF-11 (method not described in the text).
Turning to B1, the binding result was “no binding”.

Consider B2, for which the binding result is “no binding”.

For the molecule B3, the binding result is recorded as “no binding”.

Take B4: the binding result is “no binding”.

For B5, the binding result is listed as “no binding”.

For the next experiment, the target named is T2, human pro-myostatin. Nature of the experiment: Ab KD, summary Table 11; method and antigen not stated there.
Regarding B1, the affinity, expressed as Kd, was 0.683 nM.

In the case of B5, the dissociation constant (Kd) was 3.56 nM.

With B7, the Kd is 0.04 nM. This Kd is about 89-fold lower than that of the molecule before.

A further experiment addresses T2, human pro-myostatin. Nature of the experiment: Fab KD, summary Table 11; method and antigen not stated there.
Turning to B9, the affinity, expressed as Kd, was 44.4 nM.

Regarding B10, the Kd is 53.8 nM.

B11 displayed a Kd of 21.9 nM.

The next experiment deals with T1, recombinant human latent myostatin. Nature of the experiment: cell-based or functional assay. The source holds these as a separate data set.
For the molecule B1, the “mTLL2 IC50” value was found to be 0.139 nM.

Regarding B5, the “mTLL2 IC50” value is 9.22 nM.

Regarding B7, the “mTLL2 IC50” value was determined as 0.139 nM.

The next experiment concerns the target mouse GDF-11 (mouse, UniProt Q9Z1W4 297-405, limits assumed). As to the kind of experiment: plate binding assay, OD 450 nm, one antibody concentration that is not given, on Mu-GDF-11 (method not described in the text).
On to B1, for which the binding result is given as “no binding”.

In the case of B2, the binding result was “no binding”.

In the case of B3, the binding result is “no binding”.

As for B4, the binding result was “no binding”.

In the case of B5, the binding result was “no binding”.

For a further experiment, the target named is T3, cyno pro-myostatin (cynomolgus monkey, Biotinylated for capture in the SPR assay (site not stated). The native form is a disulfide-linked homodimer, partly furin-cleaved; one chain is given.).
T3 construct: also called proGDF8 (cynomolgus); cynomolgus monkey pro-myostatin
Nature of the experiment: SPR Biacore 8K, biotin-antigen captured. (In SPR one partner is held on a chip, and binding of the other changes the refractive index at the surface.)
Molecule B1 gave a Kd of 0.339 nM, a koff of 0.000539 s⁻¹ and a kon of 1.59e+06 M⁻¹ s⁻¹.

Turning to B2, the Kd worked out at 0.814 nM, the koff turned out to be 0.000736 s⁻¹ and the kon was 905000 M⁻¹ s⁻¹.

B3 displayed a Kd of 3.13 nM, a koff of 0.00139 s⁻¹ and a kon of 443000 M⁻¹ s⁻¹.

As to B4, the Kd came out at 2.6 nM, the koff was 0.00908 s⁻¹ and the kon was 3.49e+06 M⁻¹ s⁻¹.

With B5, the Kd is 0.601 nM, the koff was determined as 0.000124 s⁻¹ and the kon is 207000 M⁻¹ s⁻¹.

With B6, the dissociation constant (Kd) was 1.3 nM, the koff stood at 0.000534 s⁻¹ and the kon was found to be 411000 M⁻¹ s⁻¹.

Molecule B7 came in with a Kd of 0.0369 nM, a koff of 0.000103 s⁻¹ and a kon of 2.8e+06 M⁻¹ s⁻¹.

B8 gave a Kd of 0.159 nM, a koff of 0.00102 s⁻¹ and a kon of 6.39e+06 M⁻¹ s⁻¹.

In another experiment the target is T4, murine pro-myostatin (mouse, UniProt O08689 25-376, biotinylated (in the SPR assay)).
T4 construct: also called proGDF8 (mouse); mouse pro-myostatin
Nature of the experiment: SPR Biacore 8K, biotin-antigen captured.
The molecule B1 showed a Kd of 0.618 nM, a koff of 0.000772 s⁻¹ and a kon of 1.25e+06 M⁻¹ s⁻¹.

B2 returned a Kd of 0.716 nM, a koff of 0.000655 s⁻¹ and a kon of 914000 M⁻¹ s⁻¹.

Take B3: the dissociation constant Kd worked out at 3.05 nM, the koff amounted to 0.00137 s⁻¹ and the kon is 450000 M⁻¹ s⁻¹.

B4 yielded a Kd of 6.29 nM, a koff of 0.0208 s⁻¹ and a kon of 3.31e+06 M⁻¹ s⁻¹.

B5 displayed a Kd of 0.748 nM, a koff of 0.000188 s⁻¹ and a kon of 251000 M⁻¹ s⁻¹.

The molecule B6 gave an equilibrium dissociation constant (Kd) of 4.24 nM, a koff of 0.000496 s⁻¹ and a kon of 117000 M⁻¹ s⁻¹.

B7 displayed a Kd of 0.0531 nM, a koff of 0.000156 s⁻¹ and a kon of 2.93e+06 M⁻¹ s⁻¹.

On to B8, for which the Kd was found to be 0.218 nM, the koff is 0.00183 s⁻¹ and the kon came out at 8.42e+06 M⁻¹ s⁻¹.

In the next experiment the target is T2, human pro-myostatin. Nature of the experiment: SPR Biacore 8K, biotin-antigen captured.
In turn, B1 displayed a Kd of 0.394 nM, a koff of 0.000543 s⁻¹ and a kon of 1.38e+06 M⁻¹ s⁻¹.

Molecule B2 showed a Kd of 0.365 nM, a koff of 0.000463 s⁻¹ and a kon of 1.27e+06 M⁻¹ s⁻¹.

B3 returned a Kd of 3.04 nM, a koff of 0.00123 s⁻¹ and a kon of 406000 M⁻¹ s⁻¹.

The molecule B4 showed a Kd of 1.74 nM, a koff of 0.00735 s⁻¹ and a kon of 4.23e+06 M⁻¹ s⁻¹.

The molecule B5 gave a Kd of 0.561 nM, a koff of 0.000122 s⁻¹ and an association rate constant (kon) of 217000 M⁻¹ s⁻¹.

For B6, binding was put at a Kd of 2.2 nM, the koff amounted to 0.000307 s⁻¹ and the kon was 140000 M⁻¹ s⁻¹.

As to B7, the Kd is 0.04 nM, the koff was 0.000112 s⁻¹ and the kon was determined as 2.79e+06 M⁻¹ s⁻¹.

The molecule B8 displayed a Kd of 0.177 nM, a koff of 0.00105 s⁻¹ and a kon of 5.92e+06 M⁻¹ s⁻¹.
